The nature of data set [1]: Osteogenic activity of the peptide fragment. The text has this:
A preferred osteoactivin active peptide fragment for use in the present invention is the amino acid sequence LAPFSRGDREKDPLLQDK (SEQ ID NO: 1). […] Accordingly, in some embodiments, shorter sections of SEQ ID NO: 1 consisting of 6 or 12 amino acids can be used.

Another data set has as its system bone defect. To be noted: at 4 weeks; none of the control animals showed complete bone fill; cited from earlier work.
In data set [2] the test system is critical size defects in bilateral distal femurs. Put plainly: Sheep model for cancellous bone healing (critical size defect in distal femur, OA-soaked collagen sponge). In kind it is in vivo, sheep (Ovis aries). To be noted: for radiographic analysis: regeneration of bone at the defect site: vs control femurs. The text has this: Thus, the sheep model provides a way to study the effect of OA on osteogenesis by inducing critical size defects into the long bones of the animals. […] Approval of the Northeast Ohio Medical University Institutional Animal Care and Use Committee (IACUC) was obtained prior to the start of this study. Six (6) male sheep (Ovis aries) between ages 2-3 years old were used, each with a critical size defect (25 mm in depth×11 mm in diameter) drilled into bilateral hind limb distal femurs. The surgical protocol utilized was based on previous work done to develop a model for cancellous bone healing (Malhotra et al, Front Surg. 2014 Sep. 8; 1:37). This method allowed for high quality standardization and sterility processes across each sheep. […] Martini et al., Comp Med. 2001 August; 51(4):292-9; Pearce et al., Eur Cell Mater. 2007 Mar. 2; 13:1-10. The procedures were performed by an orthopedic surgeon. Once under appropriate anesthesia, one femur defect (left hindlimb) was drilled with a cannulated acorn drill (Stryker) and packed with an PBS absorbable collagen sponge (Medline Industries) without OA protein and thus functioned as a control, while the other defect (right hindlimb) was filled with either a low dose (10 μg), or high dose (50 μg) recombinant OA-soaked collagen sponge (R&D Systems). Three sheep received the high dose OA while two received the low dose OA, and one was left as a control. The animals were allowed to recover and then terminated after a period of 10 weeks. The femurs were harvested for x-ray (General Electric) and μCT (Scanco) imaging. Blood and urine samples were collected for CBC, CMP and urinalysis (ANTECH Diagnostics). Tissue biopsies were taken from heart, lung, liver, spleen, kidney, thyroid gland, adrenal gland, and skeletal muscle for RNA and histological analyses during post-mortem dissection.

A short description of data set [3]: CBC, CMP, urinalysis and histological sampling of OA-treated sheep. In kind it is in vivo, sheep (Ovis aries). The text has this:
Approval of the Northeast Ohio Medical University Institutional Animal Care and Use Committee (IACUC) was obtained prior to the start of this study. Six (6) male sheep (Ovis aries) between ages 2-3 years old were used, each with a critical size defect (25 mm in depth×11 mm in diameter) drilled into bilateral hind limb distal femurs. The surgical protocol utilized was based on previous work done to develop a model for cancellous bone healing (Malhotra et al, Front Surg. 2014 Sep. 8; 1:37). This method allowed for high quality standardization and sterility processes across each sheep. […] Martini et al., Comp Med. 2001 August; 51(4):292-9; Pearce et al., Eur Cell Mater. 2007 Mar. 2; 13:1-10. The procedures were performed by an orthopedic surgeon. Once under appropriate anesthesia, one femur defect (left hindlimb) was drilled with a cannulated acorn drill (Stryker) and packed with an PBS absorbable collagen sponge (Medline Industries) without OA protein and thus functioned as a control, while the other defect (right hindlimb) was filled with either a low dose (10 μg), or high dose (50 μg) recombinant OA-soaked collagen sponge (R&D Systems). Three sheep received the high dose OA while two received the low dose OA, and one was left as a control. The animals were allowed to recover and then terminated after a period of 10 weeks. […]

The target in a further data set is T1, CD44 (Mus musculus, UniProt P15379).
T1 construct: biotinylated rOA added onto MC3T3-E1 cells; endogenous in cells; host or cells: MC3T3-E1
T1 sequence (P15379 23-778): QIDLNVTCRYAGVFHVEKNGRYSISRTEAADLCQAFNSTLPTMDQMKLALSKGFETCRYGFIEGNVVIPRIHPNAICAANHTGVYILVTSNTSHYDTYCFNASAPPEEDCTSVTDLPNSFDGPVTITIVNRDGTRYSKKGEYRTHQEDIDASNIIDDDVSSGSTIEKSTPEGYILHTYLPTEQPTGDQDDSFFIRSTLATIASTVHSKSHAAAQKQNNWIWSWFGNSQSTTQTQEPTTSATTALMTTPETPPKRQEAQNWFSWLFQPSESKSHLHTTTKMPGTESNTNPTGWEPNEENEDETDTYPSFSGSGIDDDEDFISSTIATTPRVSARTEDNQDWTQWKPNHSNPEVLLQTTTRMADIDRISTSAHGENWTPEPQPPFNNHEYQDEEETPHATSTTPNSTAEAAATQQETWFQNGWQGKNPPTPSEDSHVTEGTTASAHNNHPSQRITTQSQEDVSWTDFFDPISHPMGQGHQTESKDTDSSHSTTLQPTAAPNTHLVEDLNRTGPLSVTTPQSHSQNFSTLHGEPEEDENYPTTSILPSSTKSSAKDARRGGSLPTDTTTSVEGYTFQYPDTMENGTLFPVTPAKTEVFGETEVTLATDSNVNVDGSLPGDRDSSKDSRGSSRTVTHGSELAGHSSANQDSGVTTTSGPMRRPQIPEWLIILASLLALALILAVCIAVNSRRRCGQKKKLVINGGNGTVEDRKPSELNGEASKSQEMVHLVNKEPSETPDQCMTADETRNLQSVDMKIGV
The data set can be described thus: Binding of biotinylated rOA on MC3T3-E1 cells (immunofluorescence, immunoprecipitation, blot for CD44). The text has this:
FIG. 3(A-C) provides images showing osteoactivin binds to CD44 in bone cells. (A) Silver staining and mass spectroscopy analysis of biotinylated rOA added onto MC3T3-E1 cells.

For a further data set, the system named is bone segmental defect. Put plainly: Local delivery in a model of bone segmental defect. In kind it is in vivo. The text has this:
It is synthesized and secreted by osteoblasts where it acts as signaling molecule to promote osteoblast differentiation and function. […] Research has also shown that OA is involved in mouse and human stem cells differentiation to bone cells, and that OA is responsible to transdifferentiate muscle cells to bone forming osteoblasts. The receptor for OA in bone and mesenchymal stem cells is CD44. OA induces differentiation of mesenchymal stem cells to bone cells through CD44.

Take “LAPFSRGDREKDPLLQDK (listed as Homo sapiens) [SEQ ID NO: 1]”: the osteogenic activity entry in data set [1] is reported as “demonstrated the osteogenic activity”.

B1: OA: 572 amino acid transmembrane glycoprotein encoded by the GPNMB gene; recombinant protein (R&D Systems) soaked into collagen sponge (protein, UniProt Q14956 23-572, looked up)
Transmembrane glycoprotein NMB: KRFHDVLGNERPSAYMREHNQLNGWSSDENDWNEKLYPVWKRGDMRWKNSWKGGRVQAVLTSDSPALVGSNITFAVNLIFPRCQKEDANGNIVYEKNCRNEAGLSADPYVYNWTAWSEDSDGENGTGQSHHNVFPDGKPFPHHPGWRRWNFIYVFHTLGQYFQKLGRCSVRVSVNTANVTLGPQLMEVTVYRRHGRAYVPIAQVKDVYVVTDQIPVFVTMFQKNDRNSSDETFLKDLPIMFDVLIHDPSHFLNYSTINYKWSFGDNTGLFVSTNHTVNHTYVLNGTFSLNLTVKAAAPGPCPPPPPPPRPSKPTPSLATTLKSYDSNTPGPAGDNPLELSRIPDENCQINRYGHFQATITIVEGILEVNIIQMTDVLMPVPWPESSLIDFVVTCQGSIPTEVCTIISDPTCEITQNTVCSPVDVDEMCLLTVRRTFNGSGTYCVNLTLGDDTSLALTSTLISVPDRDPASPLRMANSALISVGCLAIFVTVISLLVYKKHKEYNPIENSPGNVVRSKGLSVFLNRAKAVFFPGNQEKDPLLKNQEFKGVS
B1: the “animals showing complete bone fill” value in the data set with bone defect was 70%. In data set [2] (50 μg OA, after 10 weeks, compared to control (FIG. 2)), the “radiographs and μCT of the femur defect site” value was “regenerated bone”. Moreover, in data set [2] (OA-soaked absorbable collagen sponge vs defect only or collagen sponge alone, n=6), the “bone healing and regeneration (radiographic, μCT imaging and histological analysis)” value was “significantly accelerated bone healing and regeneration”. The “Micro-CT bone volume and density of the regenerated area” value in data set [2] (OA-treated defect sites vs control, 10 weeks) was “significant increase”. Moreover, the “radiographic analysis: regeneration of bone at the defect site” value is “complete regeneration of bone at the defect site” in data set [2] (high dose (50 μg) recombinant OA-soaked collagen sponge, 10 weeks) and “complete regeneration of bone at the defect site” in data set [2] (low dose (10 μg) recombinant OA-soaked collagen sponge, 10 weeks). The “adverse systemic effects per laboratory studies or histological sampling” value in data set [3] (administered locally, sheep) is given as “no apparent adverse systemic effects”. Besides, the “CBC, CMP and urinalysis” value in data set [3] (control vs OA-treated sheep) is on record as “no apparent abnormalities”. Besides, the “Immunoprecipitation of biotinylated rOA pulled out with streptavidin beads and blotted for CD44” value with CD44 (MC3T3-E1 cells) was “OA-CD44 interaction”. Besides, in the data set with CD44 (bone cells), the “Immunofluorescence of CD44 and OA” value was “colocalization along the cell membrane”. In addition, the bone regeneration result in the data set with bone segmental defect is listed as “stimulates bone regeneration”.

The values are drawn from US12234269B2, “Osteogenic biomaterial” (Northeast Ohio Medical University, priority 2014, dated 2025).
